Ends that are not written are not given here. * marks the point of attachment. Biotin = O=C1N[C@H]2[C@H](CS[C@H]2CCCCC(=O)*)N1

Assay [1] deals with T1, Set (B) peptide encompassing amino acids 1-7 of the β-amyloid peptide, DAEFRHD--GSGGSGGSK-biotin.
T1 peptide: DAEFRHDGSGGSGGSK(Biotin)
The experiment in a line: SRU BIND biosensor, peptide set (B).

The target of assay [2] is T2, Set (B) peptide encompassing amino acids 1-5 of the β-amyloid peptide, DAEFR--GSGGSGGSGSK-biotin.
T2 peptide: DAEFRGSGGSGGSGSK(Biotin)
The experiment in a line: SRU BIND biosensor, peptide set (B).

The target of assay [3] is T3, Set (B) peptide encompassing amino acids 1-6 of the β-amyloid peptide, DAEFRH--GSGGSGGSGK-biotin.
T3 peptide: DAEFRHGSGGSGGSGK(Biotin)
The experiment in a line: SRU BIND biosensor, peptide set (B).

Assay [4] has as its target T4, human beta-amyloid peptide (1-40) (human, UniProt P05067 672-711).
T4 construct: domain: beta-amyloid peptide (1-40); Unlabelled peptide: amine-coupled to a CM5 chip (Method A(ii)) or in solution as analyte (Method B); also called beta-amyloid (1-40)
The experiment in a line: SPR Biacore 3000, Method B: antibody captured on anti-mouse IgG surface, β-amyloid 4-500 nM as analyte; n = 3; peptide length not given. The method, then:
(§1) In the second instance the assay was reversed, in that antibodies were first captured to a level of 1000-2500 resonance units on an anti-mouse IgG polyclonal antibody surface (for recombinant mouse 2E7 MAb) or a protein A surface (for humanized H2L1) of a CM5 biosensor chip. Freshly prepared beta-amyloid (1-40) or (1-42) was diluted down in HBS-EP buffer and passed over the captured-antibody surface at concentrations ranging from 4-500 nM (Table 10C and 10D).
(§2) In both methods, regeneration was via a pulse of 100 mM H₃PO₄, and for Table 10A data also followed by a pulse of 50 mM NaOH. […] All runs were double referenced against buffer blank injections. Analysis was carried out using the Biacore™ analysis software BIAevaluation version 4.1.

Assay [5] has as its target T5, human Aβ peptide (1-40) biotinylated at the C terminus (human, UniProt P05067 672-711, biotinylated at the C-terminus).
T5 construct: domain: β-amyloid peptide (1-40); Numbers 1-40 count on the β-amyloid peptide, not on APP; also called beta-amyloid 1-40 peptide (biotinylated at the C-terminus); streptavidin-captured beta-amyloid (1-40)
Briefly: SPR Biacore 3000, Method A(i): C-terminally biotinylated β-amyloid 1-40 on streptavidin chip, antibody as analyte; Run 2. The method, then:
(§3) (i) Briefly, <20 resonance units of beta-amyloid 1-40 peptide (biotinylated at the C-terminus) were captured on a streptavidin biosensor chip (as used for Table 10A). The antibodies were diluted down in HBS-EP buffer and passed over the streptavidin/beta-amyloid surface at concentrations ranging from 0.001 nM-8 nM (for Table 10A). Two separate runs were carried out; each run was carried out on a new streptavidin/beta-amyloid surface. Runs 1 and 2 were essentially the same though there were some differences in the parameters used; Run 1 was carried out using a chip surface on which 16 RU's of beta-amyloid were captured, and antibody concentrations of 0.001 nM-8 nM were used, an association time of 4 minutes and a dissociation time of 20 minutes were used at a flow rate of 50 μl per minute. For Run 2, less than 10 RU's of beta-amyloid were captured and antibody concentrations of 0.003125 nM-8 nM were used. The flow rate and association times were the same as Run 1, however the dissociation time was reduced to 15 minutes. (ii) Beta amyloid (1-40) and (1-42) were amine-coupled on different surfaces of a CM5 biosensor chip to a level of <20 resonance units (as used for Table 10B). The antibodies were diluted down in HBS-EP buffer and passed over the biosensor/beta-amyloid surface at concentrations ranging from 1 nM-64 nM (as used for Table 10B).
as §2
In general terms: In SPR one partner is held on a chip, and binding of the other changes the refractive index at the surface.

The target of assay [6] is T5, human Aβ peptide (1-40) biotinylated at …. Briefly: SPR Biacore 3000, Method A(i): C-terminally biotinylated β-amyloid 1-40 on streptavidin chip, antibody as analyte; Run 1. The method, then: as §3, §2
Assay [7] has as its target T6, Peptide APP1, AcNH-SEVKMDAEFRHDGSGK-biotin.
T6 construct: also called APP derived peptide APP1
T6 peptide: Ac-SEVKMDAEFRHDGSGK(Biotin)
The experiment in a line: Biacore, peptide on streptavidin chip. The method, then:
(§4) In addition to the experiments described above, the Biacore™ 3000 optical biosensor was used to monitor the binding of 2E7 antibody to selected β-amyloid sequence derived peptides. Binding was measured by injecting test antibodies at up to 64 nM for 5 minute over peptides captured on separate streptavidin chip surfaces (130-230 RU (resonance units)). A running buffer (HBS-EP) containing 0.01 M HEPES pH7.4, 0.15 M NaCl, 3 mM EDTA and 0.005% Surfactant P20™ at 25° C. was used at a flow rate of 20 ul/min. All runs were double referenced against a blank streptavidin surface and blank injections. Analysis was carried out using the Biacore™ analysis software BIAevaluation™ version 4.1.
(§5) In a study similar to the epitope mapping study on 2E7 using the Surface Plasmon Resonance assay described above, H2L1 behaved similarly to 2E7 in binding to the peptide encompassing amino acids 1-12 (Aβ1, SEQ ID No:15) of the β-amyloid peptide and not to the peptide encompassing amino acids 2-13 of the β-amyloid peptide (Aβ2-13, SEQ ID No:44).

Assay [8] has as its target T7, Peptide Aβ2-13, AEFRHDSGYEVHGSGK-biotin.
T7 construct: The range counts on the β-amyloid peptide; also called 2-13 peptide; β-amyloid peptide 2-13
T7 peptide: Ac-AEFRHDSGYEVHGSGK(Biotin)
The experiment in a line: Biacore 3000, peptide on streptavidin chip. The method, then: as §4
In a separate experiment the β-amyloid 1-40 peptide was captured via its N-terminal aspartic acid residue that had been biotinylated. This peptide was captured onto a Biacore™ streptavidin coated chip as previously described. Antibody 2E7 injected at 66 nM for 1 minute could not bind this peptide. Therefore, it is concluded that the previously descibed N-terminal binding site was masked by the linker and capture method, thus further confirming the extreme N-terminus as containing the core binding site

Assay [9] deals with T5, human Aβ peptide (1-40) biotinylated at …. Briefly: SPR Biacore 3000, Method A(i): C-terminally biotinylated β-amyloid 1-40 on streptavidin chip, antibody as analyte; Average(SD) of two runs. How it is done:
as §3, §2

Assay [10] has as its target T4, human beta-amyloid peptide (1-40). The experiment in a line: SPR Biacore 3000, Method A(ii): β-amyloid amine-coupled to CM5 chip, antibody 1-64 nM as analyte. The method, then:
as §3, §2

The target of assay [11] is T8, human beta-amyloid peptide (1-42) (human, UniProt P05067 672-713).
T8 construct: domain: beta-amyloid peptide (1-42); Unlabelled peptide: amine-coupled to a CM5 chip (Method A(ii)) or in solution as analyte (Method B); also called beta-amyloid (1-42)
T8 sequence (P05067 672-713 limits assumed): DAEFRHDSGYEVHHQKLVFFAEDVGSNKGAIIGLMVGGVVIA
Described as above. The method, then: as §3, §2

The target in assay [12] is T5, human Aβ peptide (1-40) biotinylated at …. The experiment in a line: Aβ binding ELISA, human Aβ (1-40) biotinylated at the C terminus. (An ELISA detects its analyte on a solid surface through an enzyme-linked reagent.)
In assay [13] the target is T9, human Aβ peptide (length not stated) (human, UniProt P05067 672-711).
T9 construct: also called β-amyloid in solution
T9 sequence (P05067 672-711): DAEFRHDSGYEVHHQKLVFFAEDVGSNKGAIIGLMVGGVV
Briefly: competition ELISA, β-amyloid in solution pre-incubated with the antibody; competitor: immobilised mouse 2E7; Experiment 2. How it is done:
(§6) 2) β-amyloid in solution; a constant concentration of β-amyloid was pre-incubated with a dilution series of humanised 2E7 antibody variants—the mixture including complexed and free amyloid was added for a short time to wells containing immobilised mouse 2E7 MAb. The amount of free β-amyloid that was still available for binding the immobilised parental 2E7 MAb was then detected.

In assay [14] the target is T4, human beta-amyloid peptide (1-40). Briefly: SPR Biacore 3000, Method B: antibody captured on protein A surface, β-amyloid 4-500 nM as analyte; n = 3; peptide length not given. The method, then: as §1, §2
Assay [15] concerns the target T5, human Aβ peptide (1-40) biotinylated at …. The experiment in a line: Aβ binding ELISA, human Aβ (1-40) biotinylated at the C terminus. The source holds these as a separate data set.
For assay [16] the target is unchanged. Briefly: competition ELISA, biotinylated human Aβ (1-40) on streptavidin plate; competitor: mouse 2E7 at constant concentration; Experiment 2. The method, then: (§7) Two types of competition ELISA were established in order to compare the Aβ binding activity of the three humanised variants compared to the 2E7 chimeric antibody. 1) Immobilised β-amyloid; biotinylated human Aβ peptide (1-40) was immobilized through Streptavidin on ELISA plates Mouse 2E7 antibody was added at a constant concentration along with a dilution series of 2E7-derived humanised variant antibodies. Bound mouse 2E7 MAb was then detected with anti-mouse IgG conjugate.

In assay [17] the target is T9, human Aβ peptide (length not stated). Briefly: competition ELISA, β-amyloid in solution pre-incubated with the antibody; competitor: immobilised mouse 2E7; Experiment 1. How it is done: as §6
Assay [18] addresses T5, human Aβ peptide (1-40) biotinylated at …. Briefly: Aβ binding ELISA with culture supernatant, Aβ peptide (1-40).
For assay [19] the target is unchanged. Briefly: competition ELISA, biotinylated human Aβ (1-40) on streptavidin plate; competitor: mouse 2E7 at constant concentration; Experiment 1. How it is done:
as §7

The target of assay [20] is T7, Peptide Aβ2-13, AEFRHDSGYEVHGSGK-biotin. Briefly: Biacore, peptide on streptavidin chip. The method, then: as §4, §5
Assay [21] concerns the target T5, human Aβ peptide (1-40) biotinylated at …. Briefly: Aβ binding ELISA, human Aβ (1-40) biotinylated at the C terminus. This is another data set of the same source.

T4 sequence (P05067 672-711 limits assumed): as the sequence (P05067 672-711) above
T5 sequence (P05067 672-711 limits assumed): as the sequence (P05067 672-711) above

B1: Mouse monoclonal antibody 2E7 (antibody, mouse IgG2a, V domains shown)
VH: EVKLVESGGGLVQPGGSLKLSCAVSGFTFSDNGMAWVRQAPRKGPEWIAFISNLAYSIDYADTVTGRFTISRDNAKNTLYLEMSSLRSEDTAMYYCVSGTWFAYWGQGTLVTVSA
VL: DVVLTQTPLSLPVSLGDQASISCRVSQSLLHSNGYTYLHWYLQKPGQSPKLLIYKVSNRFSGVPDRFSGSGSGTDFTLKISRVEAEDLGVYFCSQTRHVPYTFGGGTKLEIK
notes: Murine IgG2a heavy chain, murine kappa light chain; also called 2E7 MAb; parental mouse 2E7 MAb
The term Kd denotes the free concentration of one partner at which half of the binding sites on the other are occupied at equilibrium, for simple one-to-one binding. A high value points to a looser complex. In general, koff refers to a measure of how fast the partners let go of each other. The kon is the rate constant with which the complex forms. A lower kon goes with slow association. On to B1, for which the binding result in assay [1] is “binds”; in [2], “binds”; in [3] it was “binds”; in assay [7], “no binding”; in assay [8] it was “no binding (tested: up to 64 nM)”. Further, the Kd in assay [4] is 1.58 nM; in assay [5], 0.0338 nM; in assay [6] it was 0.0383 nM; in assay [9] it was 0.0361 nM; in assay [10], 0.317 nM; in [11] it was 0.394 nM. In addition, the koff in assay [4] is 0.000428 s⁻¹; in [10], 0.000128 s⁻¹; in assay [11] it was 0.000151 s⁻¹. Further, the on-rate (kon) in assay [4] amounted to 283000 M⁻¹ s⁻¹; in assay [10], 405000 M⁻¹ s⁻¹; in assay [11], 382000 M⁻¹ s⁻¹.

B2: Humanised 2E7 variant H2L1 (antibody, human IgG1, kappa, V domains shown)
VH: EVQLVESGGGLVQPGGSLRLSCAVSGFTFSDNGMAWVRQAPGKGLEWVSFISNLAYSIDYADTVTGRFTISRDNAKNSLYLQMNSLRAEDTAVYYCVSGTWFAYWGQGTLVTVSS
VL: DIVMTQSPLSLPVTPGEPASISCRVSQSLLHSNGYTYLHWYLQKPGQSPQLLIYKVSNRFSGVPDRFSGSGSGTDFTLKISRVEAEDVGVYYCSQTRHVPYTFGGGTKVEIKR
notes: Human IgG1 with L235A and G237A, human kappa; also called L1+H2; H2L1 whole IgG
As usually defined, the EC50 is the concentration at which the effect is half-maximal. Read a high EC50 as lower potency in that assay. Usually IC50 stands for the midpoint of a concentration-inhibition curve. As for B2, the EC50 in assay [12] was determined as 0.048 µg/mL; in [15] it was 0.041 µg/mL; in assay [18], 0.113 µg/mL; in assay [21] it was 0.044 µg/mL. Also, the half-inhibitory concentration (IC50) in [13] came to 0.119 µg/mL; in [16] it was 1.66 µg/mL; in [17] it was 0.075 µg/mL; in assay [19], 1.28 µg/mL. The Kd was 7.32 nM in [14]; 0.0498 nM in [5]; 0.0581 nM in [6]; 0.054 nM in [9]; 0.366 nM in [10]; 0.456 nM in assay [11]. In addition, the results for the off-rate constant (koff) in assay [14], in [10] and in [11] were 0.00075 s⁻¹, 0.000122 s⁻¹ and 0.000155 s⁻¹, respectively. Besides, the results for the kon in assay [14], in assay [10] and in [11] were 106000 M⁻¹ s⁻¹, 333000 M⁻¹ s⁻¹ and 340000 M⁻¹ s⁻¹, respectively. Moreover, the binding result in [20] is listed as “no binding”.

The values are drawn from patent US20110064740A1 (GlaxoSmithKline, published 2011).
